Assay results published in patent US20090054362.

Experiments:
[1] = biological target: HIV-1 Ba-L virus (envelope gp120) (HIV-1 Ba-L) (UniProt P03375); test: cell_activity; conditions: 2'-F C and U; neutralization in human PBMCs, p24 ELISA
[2] = biological target: gp120 (SU envelope glycoprotein) (HIV-1 Ba-L) (UniProt P03375); test: EMSA; conditions: 2'-F C and U, tRNA, room temp, also dose-dependent SPR

GGGAGACAAGACUAGACGCUCAAUGUGGGCCACGCCCGAUUUUACGCUUUUACCCGCACGCGAUUGGUUUGUUUCCC [B40t77]
IC50 [1]: 2 nM | Kd ([2]; 1x cHBS): 31 nM

GGGAGACAAGACUAGACGCUCAAUGUGGGCCACGCCCGAUUUUACGCUUUUACCCGCACGCGAUUGGUUUGUUUUCGACAUGAGACUCACAACAGUUCCCUUUAGUGAGGGUUAAUU [B40]
IC50 [1]: 2 nM | Kd ([2]; 1x cHBS (10 mM HEPES pH 7.4, 150 mM NaCl, 1 mM CaCl2, 1 mM MgCl2, 2.7 mM KCl)): 21 nM
